Tests used:
Type in all cases: in vivo
[1] = tested on: Arabidopsis thaliana T1 plants; assay: Isoxaflutole tolerance of transgenic Arabidopsis thaliana T1 plants (spray, bleached leaf area grade, damage score); settings: Table 11; for Classification and statistics of the grade of pesticide damage Grade 0: number of plants at grade 0; for Classification and statistics of the grade of pesticide damage Grade 1: number of plants at grade 1; for Classification and statistics of the grade of pesticide damage Grade 2: number of plants at grade 2; for Classification and statistics of the grade of pesticide damage Grade 3: number of plants at grade 3; for Scores: pesticide damage score;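 for Scores: Weighted damage index from 0 to 100 where higher means more damage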
In short: (§1)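 Damage graded 0–3 from the proportion of bleached leaf area 7 days after spraying. Plants were glufosinate-selected T1 lines, 18 days after sowing, plus vector and wild-type controls. Rates: mesotrione 52.5–420, isoxaflutole 35–280, topramezone 25–200 g ai/ha, with water (0×).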

[2] = tested on: Arabidopsis thaliana T1 plants; assay: Topramezone tolerance of transgenic Arabidopsis thaliana T1 plants (spray, bleached leaf area grade, damage score); settings: Table 10; for Classification and statistics of the grade of pesticide damage Grade 0: number of plants at grade 0; for Classification and statistics of the grade of pesticide damage Grade 1: number of plants at grade 1; for Classification and statistics of the grade of pesticide damage Grade 2: number of plants at grade 2; for Classification and statistics of the grade of pesticide damage Grade 3: number of plants at grade 3; for Scores: pesticide damage score
In short: as §1

[3] = tested on: Arabidopsis thaliana T1 plants; assay: Mesotrione tolerance of transgenic Arabidopsis thaliana T1 plants (spray, bleached leaf area grade, damage score); parameters: Scores: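 damage score 0-100 computed as Σ(N×S)/(T×M)×100 over grades 0-3 with higher meaning more damage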; settings: Table 12; for Classification and statistics of the grade of pesticide damage Grade 0: number of plants at grade 0; for Classification and statistics of the grade of pesticide damage Grade 1: number of plants at grade 1; for Classification and statistics of the grade of pesticide damage Grade 2: number of plants at grade 2; for Classification and statistics of the grade of pesticide damage Grade 3: number of plants at grade 3; for Scores: pesticide damage score
In short: as §1

B1: HPPDm-9-02: nucleotide sequence encoding AsHPPDm-A106G-K351N-F372A-F383W with mutated C-terminal; vector DBN11790 (nucleic acid)
DNA: ATGCCACCTACTCCAGCTACAGCTACTGGTGCTGCTGCTGCTGCCGTTACTCCTGAGCACGCTGCCAGGTCATTCCCCAGGGTGGTTCGCGTGAACCCCAGATCTGATAGGTTCCCAGTTCTGAGCTTCCACCATGTTGAGCTGTGGTGCGCTGATGCTGCTTCTGCTGCTGGCAGGTTCTCTTTCGCTCTTGGTGCTCCACTCGCTGCTAGATCTGATCTGTCTACAGGAAATAGCGCTCATGCCTCACTCCTGCTTCGCTCAGGTGCTTTGGCCTTCCTCTTCACCGCTCCATATGCTCCCCCACCTCAGGAGGGTGCTACTGCTGCTGCTACAGCCTCCATTCCAAGCTTCTCAGCTGATGCCGCTAGAACCTTCGCTGCTGCTCATGGACTTGCCGTGAGGTCTGTTGGTGTTCGCGTGGCTGATGCTGCTGAGGCTTTCAGAGTTTCCGTTGCCGGCGGAGCTAGGCCAGCTTTCGCTCCTGCTGATTTGGGACATGGTTTCGGCCTGGCTGAGGTTGAGCTTTACGGTGACGTGGTTCTCCGCTTCGTGTCTTACCCAGATGAGACTGACCTGCCTTTCCTTCCCGGCTTCGAGAGAGTTTCCTCTCCTGGTGCCGTGGATTACGGCCTGACAAGGTTCGACCACGTGGTTGGAAACGTTCCCGAGATGGCTCCAGTGATCGATTACATGAAGGGCTTCCTTGGATTCCATGAGTTCGCCGAGTTCACTGCTGAGGACGTGGGAACCACTGAGTCCGGTTTGAACTCTGTGGTTCTCGCCAACAATTCTGAGGCTGTTTTGCTCCCTCTGAATGAGCCTGTGCATGGAACCAAGAGGAGAAGCCAGATTCAAACTTACCTGGAGTACCACGGTGGCCCTGGAGTTCAGCATATCGCCCTTGCTTCTAATGATGTGTTGCGCACACTCAGAGAGATGCGCGCCAGAACCCCCATGGGAGGTTTCGAGTTCATGGCCCCACCACAGGCTAAGTACTACGAGGGCGTTAGAAGGATTGCTGGAGACGTGTTGAGCGAGGAGCAGATCAATGAGTGCCAAGAGCTGGGTGTTCTTGTGGATAGGGATGACCAGGGCGTTCTGCTTCAAATTGCCACTAAGCCAGTGGGCGACCGCCCTACATTCTGGCTTGAGATGATTCAAAGAATCGGCTGCATGGAGAAGGATGAGGTTGGACAGGAGTACCAAAAGGGCGGATGCGGTGGCTTCGGAAAGGGTAACTTCAGCGAGTTGTTCAAGTCAATCGAGGAGTATGAGAAGACCTTGGAGGCCAAGCAGCTCGTGGGTTGA
modifications: mutated C-terminus; HPPDm-9-02 Nucleotide Sequence
notes: vector DBN11790
[1]; isoxaflutole 140 g ai/ha (2×)
  Resistance evaluation: Highly resistant
  Classification and statistics of the grade of pesticide damage Grade 0: 16
  Classification and statistics of the grade of pesticide damage Grade 1: 0
  Classification and statistics of the grade of pesticide damage Grade 2: 0
  Classification and statistics of the grade of pesticide damage Grade 3: 0
  Scores: 0
[1]; isoxaflutole 280 g ai/ha (4×)
  Resistance evaluation: Highly resistant
  Classification and statistics of the grade of pesticide damage Grade 0: 16
  Classification and statistics of the grade of pesticide damage Grade 1: 0
  Classification and statistics of the grade of pesticide damage Grade 2: 0
  Classification and statistics of the grade of pesticide damage Grade 3: 0
  Scores: 0
[2]; topramezone 100 g ai/ha (4×)
  Resistance evaluation: Highly resistant
  Classification and statistics of the grade of pesticide damage Grade 0: 16
  Classification and statistics of the grade of pesticide damage Grade 1: 0
  Classification and statistics of the grade of pesticide damage Grade 2: 0
  Classification and statistics of the grade of pesticide damage Grade 3: 0
  Scores: 0
[2]; topramezone 200 g ai/ha (8×)
  Resistance evaluation: Highly resistant
  Classification and statistics of the grade of pesticide damage Grade 0: 16
  Classification and statistics of the grade of pesticide damage Grade 1: 0
  Classification and statistics of the grade of pesticide damage Grade 2: 0
  Classification and statistics of the grade of pesticide damage Grade 3: 0
  Scores: 0
[3]; mesotrione 210 g ai/ha (2×)
  Resistance evaluation: Highly resistant
  Classification and statistics of the grade of pesticide damage Grade 0: 16
  Classification and statistics of the grade of pesticide damage Grade 1: 0
  Classification and statistics of the grade of pesticide damage Grade 2: 0
  Classification and statistics of the grade of pesticide damage Grade 3: 0
  Scores: 0
[3]; mesotrione 420 g ai/ha (4×)
  Resistance evaluation: Highly resistant
  Classification and statistics of the grade of pesticide damage Grade 0: 16
  Classification and statistics of the grade of pesticide damage Grade 1: 0
  Classification and statistics of the grade of pesticide damage Grade 2: 0
  Classification and statistics of the grade of pesticide damage Grade 3: 0
  Scores: 0

From patent US20250043302A1, “MUTATED HYDROXYPHENYLPYRUVATE DIOXYGENASE POLYPEPTIDE, AND CODING GENE AND USE THEREOF” (BEIJING DABEINONG BIOTECHNOLOGY CO., LTD., priority 2021, published 2025)
